Experimental findings from patent US20130115677 are described below.

What all share (assay): cleavage_in_vitro
Series [1] concerns T1, AvrII (Anabaena variabilis).
T1 sequence: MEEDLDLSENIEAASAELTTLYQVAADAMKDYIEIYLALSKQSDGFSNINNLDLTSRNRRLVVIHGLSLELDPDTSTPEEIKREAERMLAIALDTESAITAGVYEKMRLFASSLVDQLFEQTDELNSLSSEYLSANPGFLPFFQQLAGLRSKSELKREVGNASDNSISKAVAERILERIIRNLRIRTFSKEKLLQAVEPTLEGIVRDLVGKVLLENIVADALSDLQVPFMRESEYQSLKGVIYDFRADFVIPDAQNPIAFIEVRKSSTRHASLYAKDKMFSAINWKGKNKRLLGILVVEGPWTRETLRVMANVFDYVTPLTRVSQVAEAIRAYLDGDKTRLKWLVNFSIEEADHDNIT
The settings on record: NEB4, 37 C, Mg2+.

The test system of series [2] is T2, AvrII-HF Y104F (Anabaena variabilis).
T2 sequence: T1 sequence with Y104F
The following applies: NEB4, 37 C, Mg2+.

The target in series [3] is T3, SalI (Streptomyces albus G) (UniProt Q53608).
T3 sequence: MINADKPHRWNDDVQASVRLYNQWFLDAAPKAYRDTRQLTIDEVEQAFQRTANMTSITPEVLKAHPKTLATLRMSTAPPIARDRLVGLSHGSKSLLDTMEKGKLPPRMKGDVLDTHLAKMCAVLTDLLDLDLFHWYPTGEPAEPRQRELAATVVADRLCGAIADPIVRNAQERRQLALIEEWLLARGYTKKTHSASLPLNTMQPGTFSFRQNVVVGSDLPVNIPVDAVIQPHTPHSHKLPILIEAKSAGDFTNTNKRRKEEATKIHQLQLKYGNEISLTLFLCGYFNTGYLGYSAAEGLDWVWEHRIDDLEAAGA
The settings on record: NEB4, 37 C, Mg2+.

For series [4], the target named is T4, SalI-HF R107A (Streptomyces albus G) (UniProt Q53608).
T4 sequence: T3 sequence with R107A
The following applies: NEB4, 37 C, Mg2+.

The target in series [5] is T5, PvuII-HF T46G (Proteus vulgaris) (UniProt P23657).
T5 sequence: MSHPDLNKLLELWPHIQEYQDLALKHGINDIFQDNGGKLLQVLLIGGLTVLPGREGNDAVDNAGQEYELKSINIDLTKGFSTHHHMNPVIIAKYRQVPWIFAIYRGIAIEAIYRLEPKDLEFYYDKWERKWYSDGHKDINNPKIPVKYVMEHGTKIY
The settings on record: NEB4, 37 C, Mg2+.

Series [6] deals with T6, BspQI-HF K279P/R388F (Bacillus sphaericus).
T6 sequence: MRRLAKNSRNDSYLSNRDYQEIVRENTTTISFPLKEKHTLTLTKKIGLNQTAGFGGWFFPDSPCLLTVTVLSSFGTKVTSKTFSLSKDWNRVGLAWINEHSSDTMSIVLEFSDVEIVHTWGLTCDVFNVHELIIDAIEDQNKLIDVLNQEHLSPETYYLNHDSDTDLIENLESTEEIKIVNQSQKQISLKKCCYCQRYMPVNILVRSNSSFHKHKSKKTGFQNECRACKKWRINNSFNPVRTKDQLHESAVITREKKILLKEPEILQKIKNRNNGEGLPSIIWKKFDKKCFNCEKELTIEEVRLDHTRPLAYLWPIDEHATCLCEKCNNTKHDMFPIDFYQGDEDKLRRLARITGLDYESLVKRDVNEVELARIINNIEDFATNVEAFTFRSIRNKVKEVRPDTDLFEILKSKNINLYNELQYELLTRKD
The settings on record: NEB4, 50 C, Mg2+.

Where a chain is given by its changes, count along the chain named.

Consider T7 DNA, for which the values for the activity (fidelity index) in series [1] and in series [2] were 32 and > 1000, respectively. For lambda DNA HindIII digest, the activity (fidelity index) in series [3] was 1; in series [4], > 32000. The substance pBR322 returned an activity (fidelity index) in series [5] of 500. Regarding pUC19, in series [6], the activity (fidelity index) was > 4000.
